Holding throughout (test): co-sedimentation
Test [1] addresses actin (Saccharomyces cerevisiae, UniProt P60010).
Test [2] deals with T1, F-actin (Saccharomyces cerevisiae, UniProt P60010).
The target in test [3] is T1, F-actin. This is another data set of the same source.

The source of these data is article PMC4418518 (2015).

Where two headings read alike, the source gives them in different places.

As usually defined, the Kd is the free concentration of one partner at which half of the binding sites on the other are occupied at equilibrium, for simple one-to-one binding. A lower Kd goes with higher affinity.

B1: Vinculin tail (VT) 881-1066 (protein)
chain: KDEEFPEQKAGEAINQPMMMAARQLHDEARKWSSKPVTVINEAAEAGVDIDEEDDADVEFSLPSDIEDDYEPELLLMPTNQPVNQPILAAAQSLHREATKWSSKGNDIIAAAKRMALLMAEMSRLVRGGSGNKRALIQCAKDIAKASDEVTRLAKEVAKQCTDKRIRTNLLQVCERIPTISTQLKI
In the case of B1, the Kd in test [1] amounted to 370 nM; in test [2], 1480 nM; in test [3], 1310 nM.
